Source: article PMC11702601

How the values were obtained:
Test in all cases: MST
[1] = molecular target: T2 gp006-6×His (phage T2)
[2] = molecular target: T2 gp006^I20A-6×His (phage T2)
[3] = molecular target: T2 gp009-6×His (phage T2)
[4] = molecular target: T2 gp057-6×His (phage T2)

In the case of bNACHT11 (natural protein), the Kd [1] is reported as 80 nM, the Kd [2] is reported as 351 nM and the Kd [3] is reported as 269 nM. The Kd [4] was 149 nM.
